Measurements published in patent US20060083742A1.

Columns and labels:
YFP-Bcl-XL (human) = YFP-Bcl-XL (human) (UniProt Q07817); assay: acceptor-photobleaching FRET on single mitochondria of living cells after PKC agonist
CFP-Bcl-XL (human) = CFP-Bcl-XL (human) (UniProt Q07817); assay: FRET on mitochondria of bryostatin-1 treated Cos-1 cell, with the fluorophores as the legend of FIG. 5A names them

FRET efficiency (YFP-Bcl-XL (human)) [%] | FRET efficiency (CFP-Bcl-XL (human)) [%] | Substance
17 |  | CFP-K-Ras12V (from UniProt P01116 1-186)
 | 17 | YFP-K-Ras12V (from UniProt P01116 1-186)
